The text below walks through data of publication doi:10.64898/2025.12.03.692134 (bioRxiv, 2025).

The chains are these.
B2: Torpedo nicotinic acetylcholine receptor β subunit (receptor)
chain: SVMEDTLLSVLFETYNPKVRPAQTVGDKVTVRVGLTLTNLLILNEKIEEMTTNVFLNLAWTDYRLQWDPAAYEGIKDLRIPSSDVWQPDIVLMNNNDGSFEITLHVNVLVQHTGAVSWQPSAIYRSSCTIKVMYFPFDWQNCTMVFKSYTYDTSEVTLQHALDAKGEREVKEIVINKDAFTENGQWSIEHKPSRKNWRSDDPSYEDVTFYLIIQRKPLFYIVYTIIPCILISILAILVFYLPPDAGEKMSLSISALLAVTVFLLLLADKVPETSLSVPIIIRYLMFIMILVAFSVILSVVVLNLHHRSPNTHTMPNWIRQIFIETLPPFLWIQRPVTTPSPDSKPTIISRANDEYFIRKPAGDFVCPVDNARVAVQPERLFSEMKWHLNGLTQPVTLPQDLKEAVEAIKYIAEQLESASEFDDLKKDWQYVAMVADRLFLYVFFVICSIGTFSIFLDASHNVPPDNPFA

The target in assay [1] is B2. Nature of the assay: cryo-EM structure.
Assay [2] deals with T1, Torpedo nicotinic acetylcholine receptor δ subunit (Tetronarce californica (Pacific …, UniProt P02718 22-522)).
T1 sequence: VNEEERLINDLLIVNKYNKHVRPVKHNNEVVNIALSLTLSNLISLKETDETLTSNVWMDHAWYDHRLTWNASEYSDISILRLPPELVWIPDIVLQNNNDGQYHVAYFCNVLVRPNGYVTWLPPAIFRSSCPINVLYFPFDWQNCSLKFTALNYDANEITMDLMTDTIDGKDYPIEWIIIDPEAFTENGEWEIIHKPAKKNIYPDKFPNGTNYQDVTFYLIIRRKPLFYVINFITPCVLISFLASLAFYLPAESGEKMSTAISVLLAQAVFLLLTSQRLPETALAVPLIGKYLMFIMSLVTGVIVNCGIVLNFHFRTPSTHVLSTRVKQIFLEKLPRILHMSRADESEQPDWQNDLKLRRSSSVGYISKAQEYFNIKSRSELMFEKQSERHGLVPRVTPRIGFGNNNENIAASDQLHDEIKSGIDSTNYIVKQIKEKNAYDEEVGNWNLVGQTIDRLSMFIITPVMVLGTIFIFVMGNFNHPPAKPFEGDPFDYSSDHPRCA
In words: cryo-EM structure.

B1: Torpedo nicotinic acetylcholine receptor α subunit (receptor)
chain: SEHETRLVANLLENYNKVIRPVEHHTHFVDITVGLQLIQLISVDEVNQIVETNVRLRQQWIDVRLRWNPADYGGIKKIRLPSDDVWLPDLVLYNNADGDFAIVHMTKLLLDYTGKIMWTPPAIFKSYCEIIVTHFPFDQQNCTMKLGIWTYDGTKVSISPESDRPDLSTFMESGEWVMKDYRGWKHWVYYTCCPDTPYLDITYHFIMQRIPLYFVVNVIIPCLLFSFLTGLVFYLPTDSGEKMTLSISVLLSLTVFLLVIVELIPSTSSAVPLIGKYMLFTMIFVISSIIITVVVINTHHRSPSTHTMPQWVRKIFIDTIPNVMFFSTMKRASKEKQENKIFADDIDISDISGKQVTGEVIFQTPLIKNPDVKSAIEGVKYIAEHMKSDEESSNAAEEWKYVAMVIDHILLCVFMLICIIGTVSVFAGRLIELSQEG
In the case of B1, in assay [1], the binding result is “binds”.

Consider B2, for which the binding result in assay [2] is reported as “binds”.
